We go through twelve variants from IntAct's records for PubMed 26160948.

B1: Insulin-induced gene 2 protein (Homo sapiens), Q9Y5U4 (parent)
chain: MAEGETESPGPKKCGPYISSVTSQSVNLMIRGVVLFFIGVFLALVLNLLQIQRNVTLFPPDVIASIFSSAWWVPPCCGTASAVIGLLYPCIDRHLGEPHKFKREWSSVMRCVAVFVGINHASAKVDFDNNIQLSLTLAALSIGLWWTFDRSRSGFGLGVGIAFLATVVTQLLVYNGVYQYTSPDFLYVRSWLPCIFFAGGITMGNIGRQLAMYECKVIAEKSHQE
partner: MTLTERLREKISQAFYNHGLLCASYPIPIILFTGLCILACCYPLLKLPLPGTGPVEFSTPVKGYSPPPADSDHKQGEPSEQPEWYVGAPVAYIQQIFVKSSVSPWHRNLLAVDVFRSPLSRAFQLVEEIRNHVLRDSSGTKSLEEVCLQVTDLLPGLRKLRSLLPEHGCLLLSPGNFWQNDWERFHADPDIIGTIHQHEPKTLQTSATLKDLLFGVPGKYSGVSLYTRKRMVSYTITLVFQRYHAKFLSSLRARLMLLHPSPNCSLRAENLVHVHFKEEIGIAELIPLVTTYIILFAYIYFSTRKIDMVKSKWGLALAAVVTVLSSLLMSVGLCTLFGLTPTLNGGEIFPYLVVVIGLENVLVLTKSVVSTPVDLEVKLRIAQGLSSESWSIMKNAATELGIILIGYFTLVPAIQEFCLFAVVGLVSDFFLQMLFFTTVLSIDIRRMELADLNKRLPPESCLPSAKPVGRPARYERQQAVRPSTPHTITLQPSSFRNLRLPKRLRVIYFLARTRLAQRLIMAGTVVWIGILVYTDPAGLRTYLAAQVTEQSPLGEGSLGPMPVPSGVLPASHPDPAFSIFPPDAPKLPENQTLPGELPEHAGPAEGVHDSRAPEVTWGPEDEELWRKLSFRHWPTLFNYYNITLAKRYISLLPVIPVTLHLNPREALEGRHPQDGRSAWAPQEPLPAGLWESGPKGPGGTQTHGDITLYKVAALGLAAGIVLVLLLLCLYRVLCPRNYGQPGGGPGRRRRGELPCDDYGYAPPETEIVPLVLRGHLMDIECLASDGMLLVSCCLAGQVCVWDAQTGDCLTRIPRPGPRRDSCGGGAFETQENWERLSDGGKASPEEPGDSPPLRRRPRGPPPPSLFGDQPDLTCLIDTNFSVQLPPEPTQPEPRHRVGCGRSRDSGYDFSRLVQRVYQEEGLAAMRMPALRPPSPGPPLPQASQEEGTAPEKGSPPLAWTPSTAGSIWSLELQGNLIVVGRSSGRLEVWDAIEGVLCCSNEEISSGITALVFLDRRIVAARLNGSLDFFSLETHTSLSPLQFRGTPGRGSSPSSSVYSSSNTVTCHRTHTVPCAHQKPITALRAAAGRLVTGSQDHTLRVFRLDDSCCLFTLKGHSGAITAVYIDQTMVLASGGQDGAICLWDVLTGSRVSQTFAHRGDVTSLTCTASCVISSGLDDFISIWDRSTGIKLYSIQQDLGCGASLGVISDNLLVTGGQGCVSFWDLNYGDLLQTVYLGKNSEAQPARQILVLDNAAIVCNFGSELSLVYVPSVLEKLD

The variants in the experiment derive from B1. The note with it: with scap_mouse Scap.
Regarding A113W, the “effect of a mutation on the interaction” value is “disrupting interaction strength”. As for Q132A, the entry is “decreasing interaction strength”.

G200F: the “effect of a mutation on the interaction” value is given as “decreasing interaction strength”.

As for D149A, the “effect of a mutation on the interaction” value is “disrupting interaction strength”. On to M203W, for which the “effect of a mutation on the interaction” value is given as “decreasing interaction strength”. The same measure for W145A: “disrupting interaction strength”; for N47A;Q50F;N119F: “decreasing interaction strength”; for H120F: “disrupting interaction strength”. As for G39F, the entry is “decreasing interaction strength”; as for G117F, “decreasing interaction strength”; as for C77D, “decreasing interaction strength”. On to F115A, for which the “effect of a mutation on the interaction” value is listed as “disrupting interaction strength”.
